What is called Km is the substrate concentration at which the rate is half of its maximum. Broadly, the kcat is the number of substrate molecules converted per active site and unit of time at saturation.

The results in this text go back to article PMC7655567.

Substrate in this data set: O=C(O)CO
Nature of the data set: purified protein. The settings on record: 2 mM FMN, 5 mM MgSO4, 0.5 mM EDTA, 3 mM phenylhydrazine; measured in parallel with RcGOX.

B1: AtGOX1 (Arabidopsis thaliana) (protein)
chain: MEITNVTEYDAIAKQKLPKMVYDYYASGAEDQWTLQENRNAFARILFRPRILIDVSKIDMTTTVLGFKISMPIMVAPTAMQKMAHPDGEYATARAASAAGTIMTLSSWATSSVEEVASTGPGIRFFQLYVYKNRNVVEQLVRRAERAGFKAIALTVDTPRLGRRESDIKNRFTLPPNLTLKNFEGLDLGKMDEANDSGLASYVAGQIDRTLSWKDVQWLQTITKLPILVKGVLTGEDARIAIQAGAAGIIVSNHGARQLDYVPATISALEEVVKATQGRIPVFLDGGVRRGTDVFKALALGASGIFIGRPVVFSLAAEGEAGVRKVLQMLRDEFELTMALSGCRSLKEISRNHITTEWDTPRPSARL
In the case of B1, the Km came out at 390 ± 100 µM and the kcat amounted to 1.04 ± 0.237 s⁻¹.
